According to patent US20110293511A1, “SPECIFIC BINDING PROTEINS AND USES THEREOF” (priority 2009, published 2011):

Columns and labels:
U87MG.DK cells = assay: binding to cell lines by FACS; parameters: species or system human
Description: Populations expressing similar levels of the various EGFR alleles (these expression levels correspond approximately to an amplification level of 25 gene copies; human glioblastomas typically have amplification levels from 10 to 50 gene copies of the truncated receptor) were selected by FACS as described previously (Nishikawa et al., 1994) and designated as U87MG.ΔEGFR, U87MG.DK, U87MG.wtEGFR, LN-Z308.ΔEGFR, LN-Z308.DK, LN-Z308.wtEGFR, A1207.ΔEGFR, A1207.DK, and A1207.wtEGFR, respectively. Each was maintained in medium containing G418 (U87MG cell lines, 400 μg/ml; LN-Z308 and A1207 cell lines, 800 μg/ml).
Stained cells were analyzed with a FACS Calibur using Cell Quest software (Becton-Dickinson PharMingen). […] 1. Mouse IgG2a or IgG2b was used as an isotype control.

[1] = biological target: T1, EGFR from U87MG.wtEGFR and A431 cells (Homo sapiens, UniProt P00533); assay: immunoprecipitation and Endo H digestion; type: binding; conditions: majority / bulk of the material
T1 construct: endogenous in cells; host or cells: A431 (endogenous, amplified gene) and U87MG.wtEGFR (U87MG transfected with wtEGFR)
Description: This possibility was tested by immunoprecipitating the EGFR from different cells lines labelled overnight with ^35S methionine/cysteine and then subjecting the resultant precipitates to Endoglycosidase H (Endo H) digestion. This enzyme preferentially removes high mannose type carbohydrates (i.e. immature glycosylation) from proteins while leaving complex carbohydrates (i.e. mature glycosylation) intact.

A431 cells = assay: binding to cell lines by FACS; parameters: species or system human
DU145 cells = assay: FACS analysis; type: binding, human
Description: Clearly, mAb806 and mAb175 can recognize only a small proportion of the EGFR on cells in the presence of an autocrine stimulation loop.

DU145 xenografts = assay: s.c. xenograft therapy study; type: in vivo, nude mice; conditions: day 67; 1 mg i.p.; control 1145
[2] = biological target: T2, Peptide C (C-terminal biotinylated de2-7 peptide) (Homo sapiens, UniProt P00533, DELINS30-297G); assay: BIAcore with immobilized Peptide C; type: binding; conditions: mAbL8A4 even at 6.25 nM, mAb806 up to 100 nM
T2 construct: purchased Biosource, Camarillo, Calif
Description: Peptide C was immobilized on a Streptavidin microsensor chip at a surface density of 350RU (+/−30RU). Serial dilutions of mAbs were tested for reactivity with the peptide. Blocking experiments using non-biotinylated peptide were performed to assess specificity.

[3] = biological target: T3, biotinylated de2-7 specific peptide (Homo sapiens, UniProt P00533, DELINS30-297G); assay: ELISA on de2-7 junctional peptide; type: binding
T3 construct: purchased Auspep, Melbourne, Australia; host or cells: chemical synthesis (Fmoc)
Description: In the second assay, the biotinylated de2-7 specific peptide (Biotin […] (SEQ ID NO:5)) was bound to ELISA plates precoated with streptavidin (Pierce, Rockford, Ill.). Antibodies were bound and detected as in the first assay.

deglycosylated sEGFR = biological target: T4, deglycosylated sEGFR (Homo sapiens, UniProt P00533); assay: immunoblot of PNGase F treated sEGFR; type: binding
T4 construct: sEGFR is the recombinant extracellular domain (amino acids 1-621) of the wild-type EGFR); host or cells: CHO cells
Description: To determine if carbohydrate structures are directly involved in the mAb806 epitope, the recombinant sEGFR expressed in CHO cells was treated with PNGase F to remove N-linked glycosylation.

[4] = system: U87MG.DK brain xenografts; assay: intracranial glioma xenograft treatment; type: in vivo, nude mice; conditions: i.p. day 0 through 14

B1: mAb806: murine IgG2b monoclonal antibody, clone 806, ATCC PTA-3858; VH SEQ ID NO:2, VL SEQ ID NO:4 (antibody, listed as Mus musculus, V domains shown)
VH: MRVLILLWLFTAFPGVLSDVQLQESGPSLVKPSQSLSLTCTVTGYSITSDFAWNWIRQFPGNKLEWMGYISYSGNTRYNPSLKSRISITRDTSKNQFFLQLNSVTIEDTATYYCVTAGRGFPYWGQGTLVTVSA
VL: MVSTAQFLAFLLLWFPGARCDILMTQSPSSMSVSLGDTVSITCHSSQDINSNIGWLQQRPGKSFKGLIYHGTNLDDEVPSRFSGSGSGADYSLTISSLESEDFADYYCVQYAQFPWTFGGGTKLEIKR
Question: Which FACS staining (U87MG.DK cells) does the source give for B1 here?
Answer: Its FACS staining is “reacted intensely”.

Question: And the “Endo H sensitivity of the precipitated EGFR” value [1]?
Answer: Its value is “sensitive to Endo H”.

Question: And the FACS staining (A431 cells)?
Answer: Its FACS staining is “Low, but highly reproducible, binding”.

Question: What about the “binding by FACS” value (DU145 cells) of the same molecule?
Answer: The value was “bind”.

Question: What about the mean tumor volume (DU145 xenografts) of the same molecule?
Answer: The mean tumor volume was 605 mm^3.

Question: And the “reactivity with Peptide C” value [2]?
Answer: The value was “did not show detectable specific reactivity”.

Question: What about the “binding to the unique de2-7 EGFR peptide” value [3] of the same molecule?
Answer: The value was “Neither mAb806 or the 528 antibody bound to the peptide”.

Question: What about the “binding to deglycosylated sEGFR” value (deglycosylated sEGFR) of the same molecule?
Answer: Its value is “clearly bound”.

Question: And the effect on survival [4]?
Answer: The effect on survival was “did not extend survival”.
